These results are taken from US20220389118A1 (Chugai, published 2022).

Assay [1] concerns the target T1, human FcγRIa extracellular domain with C-terminal His tag (human, UniProt P12314 16-292).
T1 construct: not shown: His tag at the C terminus
Nature of the assay: SPR (Biacore), antibody captured, FcγR analyte.

Assay [2] concerns the target T2, human FcγRIIa type R (R131) extracellular domain with C-terminal His tag (human, UniProt P12318 34-217).
T2 construct: extracellular domain; also called FcγRIIaR; not shown: His tag at the C terminus
T2 sequence (looked up): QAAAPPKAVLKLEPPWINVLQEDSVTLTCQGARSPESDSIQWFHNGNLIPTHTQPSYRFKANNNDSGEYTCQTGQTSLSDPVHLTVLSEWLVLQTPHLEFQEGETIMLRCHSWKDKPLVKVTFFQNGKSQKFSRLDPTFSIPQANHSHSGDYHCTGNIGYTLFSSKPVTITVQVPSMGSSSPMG
The assay can be described thus: SPR (Biacore), antibody captured, FcγR analyte.

Assay [3] deals with T3, human FcγRIIb extracellular domain with C-terminal His tag (human, UniProt P31994 43-217).
T3 construct: extracellular domain; not shown: His tag at the C terminus
T3 sequence (looked up): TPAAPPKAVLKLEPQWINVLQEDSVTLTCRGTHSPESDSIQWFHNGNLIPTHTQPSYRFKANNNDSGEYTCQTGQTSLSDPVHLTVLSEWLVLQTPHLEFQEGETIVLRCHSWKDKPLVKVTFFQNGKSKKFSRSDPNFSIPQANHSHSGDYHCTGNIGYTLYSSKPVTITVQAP
Nature of the assay: SPR (Biacore), antibody captured, FcγR analyte. (In SPR one partner is held on a chip, and binding of the other changes the refractive index at the surface.)

Assay [4] addresses T3, human FcγRIIb extracellular domain with …. The assay can be described thus: SPR (Biacore); KD for FcγRIIaR divided by KD for FcγRIIb.
Assay [5] addresses T2, human FcγRIIa type R (R131) …. Nature of the assay: SPR (Biacore); KD of IL6R-B3/IL6R-L divided by KD of this antibody.
For assay [6], the target named is T3, human FcγRIIb extracellular domain with …. The description is as above.

T1 sequence (P12314 16-292): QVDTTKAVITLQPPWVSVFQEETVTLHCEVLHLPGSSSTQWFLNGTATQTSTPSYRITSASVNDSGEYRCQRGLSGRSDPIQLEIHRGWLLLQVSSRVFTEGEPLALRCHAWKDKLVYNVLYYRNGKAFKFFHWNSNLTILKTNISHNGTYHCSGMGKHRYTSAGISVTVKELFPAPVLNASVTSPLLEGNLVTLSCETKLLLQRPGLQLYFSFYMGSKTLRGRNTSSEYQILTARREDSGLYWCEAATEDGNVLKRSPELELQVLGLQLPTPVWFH

B1: IL6R-BP541/IL6R-L (antibody, human IgG1, kappa)
heavy: QVQLQESGPGLVKPSETLSLTCAVSGHSISHDHAWSWVRQPPGEGLEWIGFISYSGITNYNPSLQGRVTISRDNSKNTLYLQMNSLRAEDTAVYYCARSLARTTAMDYWGEGTLVTVSSASTKGPSVFPLAPSSKSTSGGTAALGCLVKDYFPEPVTVSWNSGALTSGVHTFPAVLQSSGLYSLSSVVTVPSSSLGTQTYICNVNHKPSNTKVDKKVEPKSCDKTHTCPPCPAPDLLGDDSVFLFPPKPKDTLMISRTPEVTCVVVDVSDEDGEVQFNWYVDGVEVHNAKTKPREEQDNSTYRVVSVLTVLHQDWLNGKEYKCKVSNKALPRPIEKTISKAKGQPREPQVYTLPPSRDELTKNQVSLTCLVKGFYPSDIAVEWESNGQPENNYKTTPPVLDSDGSFFLYSKLTVDKSRWQQGNVFSCSVMHEALHNHYTQESLSLSP
light: not shown
notes: K274Q introduced into IL6R-BP230; copies: 2 + 2
Usually Kd stands for the free concentration of one partner at which half of the binding sites on the other are occupied at equilibrium, for simple one-to-one binding. For B1, the Kd in assay [1] was determined as 11 nM; in assay [2], 450 nM; in assay [3] it was 16 nM. In addition, the “KD(IIaR)/KD(IIb)” value in assay [4] was 27.8. Moreover, in assay [5], the “KD(IIaR) of parent polypeptide/KD(IIaR) of altered polypeptide” value (shortened to “KD(IIaR) … of altered polypeptide”) came out at 2.4. Besides, in assay [6], the “KD(IIb) of parent polypeptide/KD(IIb) of altered polypeptide” value (“KD(IIb) … of altered polypeptide” for short) worked out at 190.

B2: IL6R-BP544/IL6R-L (antibody, human IgG1, kappa)
heavy: QVQLQESGPGLVKPSETLSLTCAVSGHSISHDHAWSWVRQPPGEGLEWIGFISYSGITNYNPSLQGRVTISRDNSKNTLYLQMNSLRAEDTAVYYCARSLARTTAMDYWGEGTLVTVSSASTKGPSVFPLAPSSKSTSGGTAALGCLVKDYFPEPVTVSWNSGALTSGVHTFPAVLQSSGLYSLSSVVTVPSSSLGTQTYICNVNHKPSNTKVDKKVEPKSCDKTHTCPPCPAPDLLGDDSVFLFPPKPKDTLMISRTPEVTCVVVDVSDEDGEVKFNWYVDGVEVHNAKTKPREEQDNSTYRVVSVLTVLHQDWLNGKEYKCKVSNKALPRPIEKTISKAKGQPREPQVYTLPPSQDELTKNQVSLTCLVKGFYPSDIAVEWESNGQPENNYKTTPPVLDSDGSFFLYSKLTVDKSRWQQGNVFSCSVMHEALHNHYTQESLSLSP
light: not shown
notes: R355Q introduced into IL6R-BP230; copies: 2 + 2
In the case of B2, the Kd in assay [1] stood at 9.8 nM; in assay [2], 480 nM; in assay [3] it was 17 nM. For the same molecule, the “KD(IIaR)/KD(IIb)” value in assay [4] turned out to be 28.8. In assay [5], the “KD(IIaR) … of altered polypeptide” value was 2.2. The “KD(IIb) … of altered polypeptide” value in assay [6] came out at 184.

B3: IL6R-BP543/IL6R-L (antibody, human IgG1, kappa)
heavy: QVQLQESGPGLVKPSETLSLTCAVSGHSISHDHAWSWVRQPPGEGLEWIGFISYSGITNYNPSLQGRVTISRDNSKNTLYLQMNSLRAEDTAVYYCARSLARTTAMDYWGEGTLVTVSSASTKGPSVFPLAPSSKSTSGGTAALGCLVKDYFPEPVTVSWNSGALTSGVHTFPAVLQSSGLYSLSSVVTVPSSSLGTQTYICNVNHKPSNTKVDKKVEPKSCDKTHTCPPCPAPDLLGDDSVFLFPPKPKDTLMISRTPEVTCVVVDVSQEDGEVKFNWYVDGVEVHNAKTKPREEQDNSTYRVVSVLTVLHQDWLNGKEYKCKVSNKALPRPIEKTISKAKGQPREPQVYTLPPSRDELTKNQVSLTCLVKGFYPSDIAVEWESNGQPENNYKTTPPVLDSDGSFFLYSKLTVDKSRWQQGNVFSCSVMHEALHNHYTQESLSLSP
light: not shown
notes: H268Q introduced into IL6R-BP230 (takes the place of H268D); copies: 2 + 2
With B3, the Kd in assay [1] is 23 nM; in assay [2] it was 560 nM; in assay [3] it was 20 nM. The “KD(IIaR)/KD(IIb)” value in assay [4] turned out to be 27.3. In assay [5], the “KD(IIaR) … of altered polypeptide” value came out at 1.9. For the same molecule, the “KD(IIb) … of altered polypeptide” value in assay [6] turned out to be 152.
